Experimental data taken from article PMC4046932.

Biological target: Neisseria gonorrhoeae MtrD inner membrane multidrug efflux pump (Neisseria gonorrhoeae) (UniProt Q51073)
Assay: crystal structure; sitting-drop vapor diffusion at room temperature; 20 mg/ml MtrD in 20 mM Na-HEPES pH 7.5, 0.05% Cymal-6; reservoir 30% PEG 400, 0.1 M Na-Bicine pH 8.5, 0.1 M NH4Cl, 0.05 M BaCl2, 9% glycerol; space group R32, one protomer per asymmetric unit; 3.53 Å

For “Neisseria gonorrhoeae MtrD inner membrane multidrug efflux pump (from UniProt Q51073 1-1067) (natural protein)”, which stoichiometry N is on record?
Its stoichiometry N is 3.
